From patent US20240317838A1, “LACTOFERRIN COMPOSITIONS AND METHODS OF USE” (LACTEA THERAPEUTICS LLC, priority 2021, published 2024) come the findings set out here.

In one data set the test system is lactoperoxidase (LPO). The data set is described as follows: Enzymatic assay for lactoperoxidase (LPO) activity. The following applies: colorimetric, turns blue in the presence of peroxidase activity. Format: biochemical. An excerpt:
An enzymatic assay for lactoperoxidase (LPO) activity was developed utilizing a molecule which in the presence of peroxidase activity turns a blue color.

In another data set the test system is ECM of the buccal cells. The experiment in a line: ECM binding by immunofluorescence imaging in primary buccal cells. Format: cell-based. The following applies: 100 μg/mL, 1 hr at 37 C. Here is the method: Primary buccal cells were next cultured according to a standard protocol (e.g., see Russo et al. Cytotechnology. 2016 October; 68(5): 2105-2114; herein incorporated by reference for all purposes). […] Immunofluorescence imaging was performed as previously described.

A short description of data set [1]: DSC iron binding capability with 1000× molar excess FeCl3. The following applies: FeCl3 in 1000× molar excess. The data set is classed as physicochemical. Here is the method:
The DSC assay was further used to assess Lactoferrin bioactivity, specifically the iron binding capability of the API-E2 Lactoferrin. Iron chloride (FeCl3) was added in 1000× molar excess to API-E2 Lactoferrin. In the presence of excess iron, the API-E2 lactoferrin will bind the iron to its open iron binding site.

Data set [2] has as its system Salivary bacteria (including Lactobacillus, Lactococcus, and Streptococcus mutans). The data set is described as follows: Salivary bacteria acid production by pH testing. The data set is classed as cell-based. The following applies: in the presence of sucrose. The method, then:
Salivary bacteria (including Lactobacillus, Lactococcus, and Streptococcus mutans) produce acid during growth. This acidification is strongly associated with tooth decay, particularly when it results in pH below 5.5, which is a clinically relevant threshold. A slurry of these bacteria were treated with sucrose to stimulate growth, as well as varying concentrations of API-E2 lactoferrin. Upon the addition of sucrose and API-E2 lactoferrin, the pH was adjusted to 7 through a titration and the change in pH was subsequently monitored over the next 6 hours.

Data set [3] in a line: Differential Scanning calorimetry (DSC) of lactoferrin samples. The data set is classed as physicochemical. The method, then:
Di[…] calorimetry (DSC) was used to assess the hololactoferrin and apolactoferrin forms through monitoring unfolding temperatures of lactoferrin samples using a nanoDSC (TA Instruments, Lindon, UT) according to standard DSC protocols known to those of skill in the art (e.g., see Hinz et al “M[…] OF RESULTS OBTAINED ON […] DI[…] CALORIMETRY”; herein incorporated by reference for all purposes.
API-E2 Lactoferrin (10 mg/mL), produced as described herein, was assessed by DSC. […] The lack of other peaks indicates the lack of contaminants and impurities and can assess API-E2 as ˜100%. […] Additionally, the lack of other peaks also indicated the purity of API-E2 Lactoferrin. […] The API-E2 hololactoferrin peak has a Tm of 88.38+/−0.8 C and a delta H of 632.7+/−7.2 kJ/mol. The hololactoferrin natively accounted for on average 8.74+/−1.39% of the total API-E2 lactoferrin with apolactoferrin accounting for the rest in the samples tested. However, the hololactoferrin percentage can be naturally variable. The API-E2 was calculated by this technique to contain virtually 100% pure lactoferrin.
The assay was also performed with heat-treated API-E2 Lactoferrin. API-E2 Lactoferrin was heated across a range of 50-100° C.
(DSC measures the heat that a sample takes up or gives off during a temperature scan.)

B1: API-E2: bovine lactoferrin purified from raw, untreated milk by cation exchange chromatography and filtration according to Example 1 (protein)
chain: APRKNVRWCTISQPEWFKCRRWQWRMKKLGAPSITCVRRAFALECIRAIAEKKADAVTLDGGMVFEAGRDPYKLRPVAAEIYGTKESPQTHYYAVAVVKKGSNFQLDQLQGRKSCHTGLGRSAGWVIPMGILRPYLSWTESLEPLQGAVAKFFSASCVPCIDRQAYPNLCQLCKGEGENQCACSSREPYFGYSGAFKCLQDGAGDVAFVKETTVFENLPEKADRDQYELLCLNNSRAPVDAFKECHLAQVPSHAVVARSVDGKEDLIWKLLSKAQEKFGKNKSRSFQLFGSPPGQRDLLFKDSALGFLRIPSKVDSALYLGSRYLTTLKNLRETAEEVKARYTRVVWCAVGPEEQKKCQQWSQQSGQNVTCATASTTDDCIVLVLKGEADALNLDGGYIYTAGKCGLVPVLAENRKTSKYSSLDCVLRPTEGYLAVAVVKKANEGLTWNSLKDKKSCHTAVDRTAGWNIPMGLIVNQTGSCAFDEFFSQSCAPGRDPKSRLCALCAGDDQGLDKCVPNSKEKYYGYTGAFRCLAEDVGDVAFVKNDTVWENTNGESTADWAKNLNREDFRLLCLDGTRKPVTEAQSCHLAVAPNHAVVSRSDRAAHVKQVLLHQQALFGKNGKNCPDKFCLFKSETKNLLFNDNTECLAKLGGRPTYEEYLGTEYVTAIANLKKCSTSPLLEACAFLTR
In the case of B1, the “LPO enzymatic activity of the sample” value in the data set on lactoperoxidase (LPO) was “neither detected by M/S or by the enzymatic assay”. Further, the “ECM association of Lactoferrin” value in the data set with ECM of the buccal cells is “strong binding along the ECM”. In addition, the “available Apolactoferrin shifted to the Hololactoferrin form upon addition of excess iron” value in data set [1] came to 100%. Besides, the “pH maintained for the entire 6 hour testing period” value in data set [2] (1 mg/mL) and in data set [2] (10 mg/mL) was “above 5.5” each time. Moreover, the “% of Total, apolactoferrin” value in data set [3] (native, no added iron) was 91.26 +/− 1.39% ^.

B2: Lab-grade standard lactoferrin: commercially available Sigma lab-grade standard lactoferrin (L9507) (protein, UniProt P24627 20-708, looked up)
Lactotransferrin: APRKNVRWCTISQPEWFKCRRWQWRMKKLGAPSITCVRRAFALECIRAIAEKKADAVTLDGGMVFEAGRDPYKLRPVAAEIYGTKESPQTHYYAVAVVKKGSNFQLDQLQGRKSCHTGLGRSAGWIIPMGILRPYLSWTESLEPLQGAVAKFFSASCVPCIDRQAYPNLCQLCKGEGENQCACSSREPYFGYSGAFKCLQDGAGDVAFVKETTVFENLPEKADRDQYELLCLNNSRAPVDAFKECHLAQVPSHAVVARSVDGKEDLIWKLLSKAQEKFGKNKSRSFQLFGSPPGQRDLLFKDSALGFLRIPSKVDSALYLGSRYLTTLKNLRETAEEVKARYTRVVWCAVGPEEQKKCQQWSQQSGQNVTCATASTTDDCIVLVLKGEADALNLDGGYIYTAGKCGLVPVLAENRKSSKHSSLDCVLRPTEGYLAVAVVKKANEGLTWNSLKDKKSCHTAVDRTAGWNIPMGLIVNQTGSCAFDEFFSQSCAPGADPKSRLCALCAGDDQGLDKCVPNSKEKYYGYTGAFRCLAEDVGDVAFVKNDTVWENTNGESTADWAKNLNREDFRLLCLDGTRKPVTEAQSCHLAVAPNHAVVSRSDRAAHVKQVLLHQQALFGKNGKNCPDKFCLFKSETKNLLFNDNTECLAKLGGRPTYEEYLGTEYVTAIANLKKCSTSPLLEACAFLTR
In the case of B2, the “LPO enzymatic activity of the sample” value with lactoperoxidase (LPO) was “does not result in a positive enzymatic reaction”. In the data set on ECM of the buccal cells, the “ECM association of Lactoferrin” value is listed as “only limited ECM association”. Further, in data set [3] (conditions as for API-E2), the “DSC peaks observed (apolactoferrin and hololactoferrin)” value was “significantly smaller than those observed for API-E2 and less defined”; the “apolactoferrin peak denaturation temperature” value was 55 °C; the “hololactoferrin peak denaturation temperature” value is 85 °C.

B3: heat-treated API-E2 Lactoferrin: API-E2 Lactoferrin heated across a range of 50-100° C. (protein, UniProt P24627 20-708, looked up)
Lactotransferrin: APRKNVRWCTISQPEWFKCRRWQWRMKKLGAPSITCVRRAFALECIRAIAEKKADAVTLDGGMVFEAGRDPYKLRPVAAEIYGTKESPQTHYYAVAVVKKGSNFQLDQLQGRKSCHTGLGRSAGWIIPMGILRPYLSWTESLEPLQGAVAKFFSASCVPCIDRQAYPNLCQLCKGEGENQCACSSREPYFGYSGAFKCLQDGAGDVAFVKETTVFENLPEKADRDQYELLCLNNSRAPVDAFKECHLAQVPSHAVVARSVDGKEDLIWKLLSKAQEKFGKNKSRSFQLFGSPPGQRDLLFKDSALGFLRIPSKVDSALYLGSRYLTTLKNLRETAEEVKARYTRVVWCAVGPEEQKKCQQWSQQSGQNVTCATASTTDDCIVLVLKGEADALNLDGGYIYTAGKCGLVPVLAENRKSSKHSSLDCVLRPTEGYLAVAVVKKANEGLTWNSLKDKKSCHTAVDRTAGWNIPMGLIVNQTGSCAFDEFFSQSCAPGADPKSRLCALCAGDDQGLDKCVPNSKEKYYGYTGAFRCLAEDVGDVAFVKNDTVWENTNGESTADWAKNLNREDFRLLCLDGTRKPVTEAQSCHLAVAPNHAVVSRSDRAAHVKQVLLHQQALFGKNGKNCPDKFCLFKSETKNLLFNDNTECLAKLGGRPTYEEYLGTEYVTAIANLKKCSTSPLLEACAFLTR
modifications: heat-treated
Take B3: the “DSC peaks observed (apolactoferrin and hololactoferrin)” value in data set [3] (conditions as for API-E2) is on record as “loss in both detectable peaks”.
